Assay results reported in US20230159653A1.
Numbering of substitutions follows the chain as printed.

B1: D5.P2.B3 (Fab, V domains shown)
VH: QVQLQQSGAEVKKPGASVKVSCKASGYTFTGYYMHWVRQAPGQGLEWMGWINGNSGGTNYAQKFQGRVTMTRDTSISTAYMELSRLKSDNTAVYYCASSGSMDVWGQGTLVTVSS
VL: QSVVTQPPSVSGAPGQRVTISCSGSSSNVGRNLVYWYQQLPGAAPRLLIYRNNQRPSGVPDRFSGSKSGTSASLAISGLRSEDEADYYCAAWDDSLSGVVFGGGTKLTVLG
B2: D5.P1.A4 (Fab, V domains shown)
VH: B1 VH with N54K, N90D, S98R, S99L, G100D, S101R, M102R, V104Y
VL: B1 VL

Biological target: ADAM17 (UniProt P78536)
Experiment: BLI (Octet Red96, 25 C), antibody captured on anti-human Fab-CH1 (FAB2G) biosensor, antigen in solution

Binder	Kd	koff	kon
B1	4.9 nM	0.0012 s⁻¹	240000 M⁻¹ s⁻¹
B2	5.3 nM	0.0023 s⁻¹	430000 M⁻¹ s⁻¹
